Results from US20130059772A1, “Use of Repeat Sequence Protein Polymers in Personal Care Compositions” (DANISCO US INC., priority 2003, published 2013).

Key:
[1] = Isoelectric point determination (IEF gel); type: physicochemical
Procedure: In this Example, experiments performed to determine the isoelectric point and cloud point of SELP47K (Example 1) are described. The isoelectric point of SELP47K was determined by electrophoresing 5 mg/ml SELP47K solution using Isoelectric Focusing Electrophoresis (IEF) gel and Novex electrophoresis apparatus along with protein standards markers.

facial skin [2] = test: Skin efficacy study: Cutometer Uv (viscoelasticity); type: in vivo, human; details: 5% aqueous solution applied once to face; 30 Minutes Post; baseline mean 0.09
From the text: (§1) Eleven impaneled subjects (age 35-70 years) showing clear signs of facial skin aging were provided with a non-moisturizing soap, (AVEENO®), one week prior to the study and were instructed to use the provided soap to wash the face and were required to refrain from excessive UV exposure. After a seven-day conditioning phase, subjects were acclimated to the ambient temperature and humidity for thirty minutes. One side of the face of each subject was designated as the measurement side by random selection by computer. After 30-minute acclimation period, baseline digital photographs were taken, and instrumental measurements, skin replica samples and visual evaluations were made. Photographs were taken, with a Canfield Scientific Camera, of the full face, the periorbital area, and the temporal side of eye. Chromameter (Model CR300, Minolta) measurements were taken from the periorbital area directly under the eye (Chardon et al., Int. J. Cosmet. Sci., 13:191-208 [1991]). Silflo replicas (CuDerm Corporation, Dallas, Tx) were made from the periorbital area adjacent to the temporal side of the eye (Grove et al., J. Am. Acad. Dermatol., 21:631-637 [1998]; and Sun et al 1997 IFSCC Conference, Mexico). Cutometer (SEM575, Courage and Khazaka, Germany) measurements were taken at the periorbital area at the upper portion of cheekbone. All measurements were performed in triplicate. […]

facial skin [3] = test: Skin efficacy study: superficial facial line score (Packman and Gans); type: in vivo, human
From the text: as §1, with “[1991]).” for “[1991]). Silflo replicas (CuDerm Corporation, Dallas, Tx) were made from the periorbital area adjacent to the temporal side of the eye (Grove et al., J. Am. Acad. Dermatol., 21:631-637 [1998]; and Sun et al 1997 IFSCC Conference, Mexico). Cutometer (SEM575, Courage and Khazaka, Germany) measurements were taken at the periorbital area at the upper portion of cheekbone. All measurements were performed in triplicate.”
Evaluation of superficial facial lines was performed by an expert evaluator using the scoring method described by Packman and Gans (supra). A 7% decrease in the superficial facial line score was assessed at the 30-minute post-treatment interval compared to baseline, which was statistically significant at the 91% confidence level (p=0.09).

[4] = Glass transition and decomposition temperature (DSC, DMA, TGA); type: physicochemical
Procedure: In this Example, experiments performed to determine the glass transition temperature (Tg) and decomposition temperature of SELP47K. (Example 1) are described. Approximately 10 mg of SELP47K material was crimped in an aluminum (Al) pan, cooled to <−150° C., then heated to >200° C. at 10° C./min under a He (helium) atmosphere. […] This initially appeared to be followed by another endothermic region and the analysis was stopped near 225° C. […] Another sample of material was examined by TGA and found to have mass loss (−8%) from room temperature to approximately 200° C., confirming the broad endotherm observed with the first sample.
A strip of SELP47K was examined by using a dynamic mechanical analyzer (DMA) over the range of −150 to 200° C. […] Another DSC sample was run, pre-heating at 100° C. for 1 hour initially to remove volatiles. The mass loss endotherm was mostly removed, and a transition at 188° C. (half-height) remained. This run was stopped and the sample cooled and examined.

facial skin [5] = test: Skin efficacy study: Chromameter a* (skin redness); type: in vivo, human
From the text: as §1, with “Mexico).” for “Mexico). Cutometer (SEM575, Courage and Khazaka, Germany) measurements were taken at the periorbital area at the upper portion of cheekbone. All measurements were performed in triplicate.”
Chromometer values for L*, a*, and b* were read and total color value, E, was calculated for each subject. […]

[6] = Cloud point determination (turbidity at 300 nm, 20-80° C.); type: physicochemical; details: 0.05% solution in water

In the case of “SELP47K: silk-elastin repeat sequence protein copolymer, head-[(GAGAGS)2(GVGVP)3GKGVP(GVGP)4(GAGAGS)2]13-tail (SEQ ID NO:19), 886 amino acids”, the Isoelectric Point ([1]; 5 mg/ml solution, IEF gel) is reported as 10.4, the “pI of the protein” value ([1]; stated in production example) is reported as 10.5 and the “Cutometer Uv Score, Mean” value (facial skin [2]) is reported as 0.106. The “Superficial Facial Line Score, Mean” value (facial skin [3]; 5% aqueous solution applied once to face, 30 Minutes Post, baseline mean 40) was 37, the “decrease in the superficial facial line score” value (facial skin [3]; 5% aqueous solution, 30-minute post-treatment vs baseline, p=0.09) was 7% and the decomposition temperature [4] was 332 °C. For the same substance, the glass transition ([4]; film material, DMA/DSC) was “approximately 189 °C”, the “Chromameter a* Score, Mean” value (facial skin [5]; 5% aqueous solution applied once to face, 30 Minutes Post, baseline mean 11.05) was 10.39 and the “decrease in average a* value (redness of the skin)” value (facial skin [5]; 5% aqueous solution, 30 minutes post vs baseline, p=0.024) was 6%. For the same substance, the cloud point [6] was “remains soluble in water even at 80 °C”.
